B1: AMO from Nitrosomonas europaea (Nitrosomonas europaea ATCC 19718) (protein)
chain 1: SIFRTEEILKAAKMPPEAVHMSRLIDAVYFPILIILLVGTYHMHFMLLAGDWDFWMDWKDRQWWPVVTPIVGITYCSAIMYYLWVNYRQPFGATLCVVCLLIGEWLTRYWGFYWWSHYPINFVTPGIMLPGALMLDFTLYLTRNWLVTALVGGGFFGLLFYPGNWPIFGPTHLPIVVEGTLLSMADYMGHLYVRTGTPEYVRHIEQGSLRTFGGHTTVIAAFFSAFVSMLMFTVWWYLGKVYCTAFFYVKGKRGRIVHRNDVTAFGEEGFPEGIK
chain 2: MTVTLDVSTVAAHGERSQEPFLRMRTVQWYDIKWGPEVTKVNENAKITGKFHLAEDWPRAAAQPDFSFFNVGSPSPVFVRLSTKINGHPWFISGPLQIGRDYEFEVNLRARIPGRHHMHAMLNVKDAGPIAGPGAWMNITGSWDDFTNPLKLLTGETIDSETFNLSNGIFWHVVWMSIGIFWIGVFTARPMFLPRSRVLLAYGDDLLMDPMDKKITWVLAILTLALVWGGYRYTENKHPYTVPIQAGQSKVAALPVAPNPVSIVITDANYDVPGRALRVTMEVTNNGDIPVTFGEFTTAGIRFINSTGRKYLDPQYPRELIAVGLNFDDESAIQPGQTKELKMEAKDALWEIQRLMALLGDPESRFGGLLMSWDAEGNRHINSIAGPVIPVFTKL
chain 3: MATTLGTSSASSVSSRGYDMSLWYDSKFYKFGMITMLLVAIFWVWYQRYFAYSHGMDSMEPEFDRVWMGLWRVHMAIMPLFALVTWGWILKTRDTKEQLDNLDPKLEIKRYFYYMMWLGVYIFGVYWGGSFFTEQDASWHQVIIRDTSFTPSHVVMFYGSFPMYIVCGVATYLYAMTRLPLFSRGISFPLVMAIAGPLMILPNVGLNEWGHAFWFMEELFSAPLHWGFVVLGWAGLFQGGVAAQIITRYSNLTDVVWNNQSKEILNNRIVA
B2: AMO from "Ca. Nitrosocosmicus franklandus" C13 (Candidatus Nitrosocosmicus franklandianus) (protein)
chain 1: MVWLRRTTHYLFIVVVAVNSTLLTINAGDYIFYTDWAWTSFVVFSISQSTMLVVGAIYYMLFTGVPGTATYYATIMTIYTWVAKGAWFALGYPYDFVVVPVWIPSAMLLDLAYWATRRNKHAAILIGGVLVGMSLPLFNMINLLLVADPLEMAFKYPRPTLPPYMTPIEPQVGKFYNSPVALGAGAGAVLCVPIAALGAKLNTWTYRWMAAWSKWD
chain 2: MNEKSGNKPAMVFLIVTFVAGASILASIIALLPLADGHGVQAQLQSRFVRINNEAFSAQSLNTGDTLVVTGELQSLVNRPMRGWISLFSESTNAGNRWEFVSRDPPGNIIEIQPQETVPYRLEAKALEPGVYHVHTQLNLASVGPGLGPGQTIQVVGDPILKPIPWNNIIYQSIIIAAGLGVTFATRPWQVI
chain 3: MAQMPALIPKEVEIQRLKKIYLMVIMLGSIAASVEVDNFVDGSLHQTAIRDSAFTPAHWWLYSHFIALPLGWGFVAMYDRRVPVLRGPNNSMNTGLKITIIGYLATMFTIGINEMWHFWFVEEIFSVPNHWMFNMGVVVAFMGALAYVVRVYARLVELGAETPARNPYVAEMYKLALEGKLYSRSIP

Substrate: N
Assay: cells, lysate or membranes
Conditions: intact cells, total NH3 + NH4+, 0.1% DMSO, no inhibitor, whole-cell nitrite read-out
[1] = 50 mM sodium phosphate pH 7.7, 2 mM MgCl2, 30°C, pH 7.7, 30.0 °C
[2] = 10 mM HEPES pH 7, 37°C, pH 7.0, 37.0 °C

| Protein | Km [1] | Vmax [1] | Km [2] | Vmax [2] |
| --- | --- | --- | --- | --- |
| B1 | 520.3 (19.6) μM | 0.324 µmol/min/mg | – | – |
| B2 | – | – | 26.7 (4.7) μM | 0.0641 µmol/min/mg |
